In JP2023110925A:

Target: ペプチド13(Aβのaa 13-21) (UniProt P05067)
Assay: ELISA on biotinylated peptides (Mimotopes format)

percent higher affinity than for whole Aβ1-42 protein: 36%
B1: ヒト化抗ヒトアミロイドβモノクローナル抗体hC2 (antibody, human IgG4 S228P, kappa, V domains shown)
VH: EVQLVESGGGLVQPGGSLRLSCAASGFTFSSYGMSWVRQAPGKGLELVASINSNGGSTYYPDSVKGRFTISRDNAKNSLYLQMNSLRAEDTAVYYCASGDYWGQGTTVTVSS
VL: DIVMTQSPLSLPVTPGEPASISCRSSQSLVYSNGDTYLHWYLQKPGQSPQLLIYKVSNRFSGVPDRFSGSGSGTDFTLKISRVEAEDVGVYYCSQSTHVPWTFGQGTKVEIKR
